Experimental findings from article PMC8442874 are described below.

In this assay the target is Soc-SpyCatcher fusion protein (displayed on T4 phage: T4-SpyCatcher phage) (bacteriophage T4). Briefly: co-sedimentation.

Substance “S-ecto-6P-SpyTagged trimer (prefusion-stabilized hexa-Pro SARS-CoV-2 spike ectodomain with C-terminal SpyTag) (from UniProt P0DTC2 14-1208) (domain or fragment)” showed a copies per capsid (S-trimers per phage capsid) of 100.
